From the supplement of paper PMC9732359
± gives the uncertainty stated by the source.

Experiment: protein stability index of a GFP-peptide fusion (yeast GPS) (PSI 1-4); higher = more stable; sorted into four equal gates, so the index is relative within each strain
Outline: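 Yeast carrying a pooled library were grown to mid-log phase in leucine-free medium. Each library plasmid expresses Cherry and has a tiled 17-residue yeast protein peptide fused downstream of GFP. Cells were sorted into four equal gates by GFP/Cherry ratio, and plasmids from each gate were PCR-amplified, Illumina-sequenced and assigned to strains by barcode. Summing, across gates, the read frequency times the gate number gave each peptide's protein stability index.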

Sequence	protein stability index (doa10∆)	protein stability index (pdr5∆)	protein stability index (san1∆)	protein stability index (ubr1∆)
YHNKHMMCDFGTGNNNK [DIB1]	2.7 ± 0.053	2.86 ± 0.055	2.73 ± 0.049	2.98 ± 0.041
DNVQANDPAREKFSSFI [SNF12]	2.94 ± 0.11	3.01 ± 0.086	3.1 ± 0.069	3.11 ± 0.043
DSTQLLETILEEFRNLA [SSN2]	2.69 ± 0.076	3.18 ± 0.065	2.85 ± 0.055	3.2 ± 0.054
AGDWKYDRQLSSLFLDG [FAS2]	2.16 ± 0.057	2.81 ± 0.065	2.34 ± 0.11	2.23 ± 0.056
GLLSQAIGCIERSDLLP [YJR042W/NUP85]	2.37 ± 0.07	2.37 ± 0.064	2.43 ± 0.09	2.51 ± 0.069
CFPQYVNSKQGAINVAN [NNF1]	2.43 ± 0.29	–	–	3.02 ± 0.16
VLPAATKKKSKFMTNST [ARP9]	2.74 ± 0.055	2.78 ± 0.046	2.71 ± 0.047	2.96 ± 0.039
IECFKPGDIVRAQVLSL [CSL4]	2.25 ± 0.15	2.04 ± 0.17	2.04 ± 0.2	2.39 ± 0.16
VFSESCSNESFASIPVS [SNU114]	2.98 ± 0.061	3.29 ± 0.068	2.88 ± 0.062	3.12 ± 0.044
TEDGWIYHGNHDVGELF [PRE2]	2.05 ± 0.057	1.84 ± 0.049	2 ± 0.074	2.33 ± 0.043
GGGRVDKPLLKAGRAFH [RPL2A]	3.12 ± 0.048	3.11 ± 0.043	2.95 ± 0.049	2.99 ± 0.03
ISPLMKSQYNMVLRNVM [SRB8]	2.32 ± 0.068	2.12 ± 0.12	2.79 ± 0.1	2.84 ± 0.11
LEDPYKYHYKEEWLNTK [CSN9]	2.88 ± 0.084	3.2 ± 0.083	2.83 ± 0.065	3.09 ± 0.072
TNSPQISVTRQVVLGGT [SMC2]	2.82 ± 0.078	3 ± 0.075	3.03 ± 0.064	2.67 ± 0.048
NKLTILGRDYPIEVDEE [IRR1]	2.28 ± 0.1	2.56 ± 0.12	2.38 ± 0.11	2.64 ± 0.066
VVEPEHMADAKIMPKDI [SIR4]	3.28 ± 0.1	3.35 ± 0.071	3.33 ± 0.085	3.12 ± 0.081
QDEEQTEHLTELSDNEE [YCG1]	3.29 ± 0.09	3.37 ± 0.075	3.33 ± 0.054	3.02 ± 0.062
SSIENNINNNINSTKNG [MED2]	2.85 ± 0.081	3.11 ± 0.093	2.88 ± 0.084	3.17 ± 0.063
DRFIELISDQLLEFFEL [YML103C/NUP188]	2.56 ± 0.067	2.42 ± 0.053	2.4 ± 0.053	2.74 ± 0.049
KGLETIDNGAESSENEA [RPC53]	3.24 ± 0.13	3.44 ± 0.13	3.14 ± 0.1	3.12 ± 0.094
PSHYPHPYEYEIDHQEY [RRP6]	2.41 ± 0.055	2.58 ± 0.055	2.17 ± 0.078	2.27 ± 0.035
DANLNDLPETGFFENIE [IRR1]	3.13 ± 0.2	3.24 ± 0.13	3.35 ± 0.1	3.27 ± 0.12
KKSRLGNSFHLMRELLK [PRP8]	2.58 ± 0.04	2.71 ± 0.046	2.39 ± 0.049	2.55 ± 0.043
FSSPAALMKTLIKFVDL [NUT1]	1.98 ± 0.083	1.68 ± 0.057	1.95 ± 0.12	1.78 ± 0.12
FLARVIKEKFDEFIKTH [IRR1]	2.79 ± 0.081	2.83 ± 0.08	2.8 ± 0.059	2.88 ± 0.074
FMRQNLEWNMANLLFKK [RPC82]	2.82 ± 0.11	1.94 ± 0.055	2.49 ± 0.082	2.85 ± 0.063

Sequence	protein stability index (doa10∆)	protein stability index (pdr5∆)	protein stability index (san1∆)	protein stability index (ubr1∆)
LSSIAERVRNFAVIYLC [DIB1]	1.51 ± 0.083	2.04 ± 0.11	1.71 ± 0.11	1.88 ± 0.12
LNLSLHKLDLAKRNLDA [SMC2]	2.28 ± 0.046	2.78 ± 0.043	2.62 ± 0.047	2.17 ± 0.029
PLHSGKTSLMDLLVIDS [SNU114]	2.48 ± 0.068	2.75 ± 0.085	2.81 ± 0.1	2.47 ± 0.048
FQLIDMKDKEINIQKYN [CSI1]	2.47 ± 0.17	1.98 ± 0.11	–	2.57 ± 0.14
GISKKTRIAGVVYHPSN [RPS8A]	2.53 ± 0.03	2.456 ± 0.024	2.41 ± 0.032	2.403 ± 0.021
RIIRKKIFIAVVWYQRL [RRI2]	1.28 ± 0.042	1.27 ± 0.036	1.27 ± 0.084	1.25 ± 0.034
YATKLSKFTKIPPTFDK [MED4]	3.08 ± 0.089	3.28 ± 0.084	3.29 ± 0.08	2.87 ± 0.14
SIKSKVVDHHVENELLQ [RRP42]	3.38 ± 0.13	3.24 ± 0.2	2.82 ± 0.17	–
SNIQRNVLFLRLFNNVK [SRP72]	2.24 ± 0.059	2.23 ± 0.054	1.49 ± 0.076	1.83 ± 0.05
DHFLSMCQNPMQKPVPF [FAS1]	2.93 ± 0.18	3.01 ± 0.14	–	2.42 ± 0.081
PVEKVKEHDEIEEQGDA [DPB4]	3.19 ± 0.095	3.34 ± 0.12	–	3.5 ± 0.11
TLQDIGFYQIKKIVDSK [YMR129W/POM152]	2.64 ± 0.095	2.68 ± 0.1	2.89 ± 0.17	2.97 ± 0.12
SLFELIVPIFQLISAVL [YJL039C/NUP192]	1.86 ± 0.068	1.75 ± 0.051	1.7 ± 0.097	1.85 ± 0.037
EQELAHILLTELLAYQF [FAS2]	2.547 ± 0.023	2.807 ± 0.025	2.67 ± 0.023	2.633 ± 0.019
FEKNTILQQRSKINSTE [MED4]	2.79 ± 0.073	3.07 ± 0.084	2.81 ± 0.07	3.15 ± 0.086
ELDAQTLPGDDELDQEI [RPT5]	3.32 ± 0.097	3.26 ± 0.12	3.44 ± 0.083	3.59 ± 0.094
KFSERRKALPKEPKKLL [DSN1]	2.33 ± 0.069	2.88 ± 0.081	2.52 ± 0.11	2.87 ± 0.053
MFRYKTNLYKLKEERAI [PUP3]	2.87 ± 0.22	2.67 ± 0.17	1.78 ± 0.17	2.1 ± 0.093
EPTVRIQAVFCLTKFQD [YCG1]	2.27 ± 0.05	2.53 ± 0.046	2.28 ± 0.063	2.78 ± 0.047
AFTCFCIKKIMENNEPA [SRB8]	2.21 ± 0.062	2.64 ± 0.077	2.38 ± 0.09	2.15 ± 0.079
LESTKAETDYVDPKRLA [DSN1]	2.96 ± 0.063	3.19 ± 0.067	3.04 ± 0.053	3.26 ± 0.075
EARAEAINLMGVKNNLL [RPO31]	3.35 ± 0.22	1.96 ± 0.15	1.84 ± 0.23	1.66 ± 0.24
MSTFIFPGDSFPVDPTT [RRP40]	2.17 ± 0.11	2.06 ± 0.092	2.35 ± 0.068	2.35 ± 0.074
HGINLQNKKNLKWVAVV [SSN2]	2.98 ± 0.066	3.11 ± 0.051	3.05 ± 0.057	3.23 ± 0.057
PNSNKTHTEQNNPPKPQ [SNF2]	2.78 ± 0.056	3.07 ± 0.083	3.06 ± 0.069	3.06 ± 0.052
